Experimental data as given in patent US20260232759A1 (WISCONSIN ALUMNI RESEARCH FOUNDATION, published 2026).
No end group written: not given here. PEG‑cholesterol = not defined here

B1: D1 Q4 D32 E35 (peptide)
peptide: DISQINASVVNIEYEIKKLEEVAKKLEESLIDLQELGSGSGC(PEG‑cholesterol)
modifications: not fully specified (C-terminus); reading uncertain; also: β2- or β3-amino acids, presumably D1, Q4, D32, E35
B2: D1 Q4 D32 Q34 (peptide)
peptide: DISQINASVVNIEYEIKKLEEVAKKLEESLIDLQELGSGSGC(PEG‑cholesterol)
modifications: not fully specified (C-terminus); reading uncertain; also: β2- or β3-amino acids, presumably D1, Q4, D32, Q34

Molecular target: SARS-CoV-2 Spike protein (SARS-CoV-2, UniProt P0DTC2 14-1273)
Assay: cell-based or functional assay

| Binder | inhibition of S-mediated cell-cell fusion (β-Gal complementation), IC50 [nM] |
| --- | --- |
| B1 | ~50 |
| B2 | ~10 |
